Test results taken from paper PMC3477312, “Characterization of Vibrio cholerae Hfq Provides Novel Insights into the Role of the Hfq C-Terminal Region” (Journal of Molecular Biology, 2012).

B1: Vibrio cholerae Hfq (natural protein)
chain: MAKGQSLQDPFLNALRRERIPVSIYLVNGIKLQGQIESFDQFVILLKNTVNQMVYKHAISTVVPARPVSHHSGDRPASDRPAEKSEE
notes: also called VcHfq; full-length VcHfq
B2: VcHfq72 (domain or fragment)
chain: MAKGQSLQDPFLNALRRERIPVSIYLVNGIKLQGQIESFDQFVILLKNTVNQMVYKHAISTVVPARPVSHHS
notes: also called VcHfq NTD; NTD alone of VcHfq

Assays:
[1] = target: VcNTDEcCTR (Vibrio cholerae | Escherichia coli) (UniProt Q9KV11); test: SDS-PAGE stability assay; 1 ug protein in loading buffer with 1% SDS heated at 95 °C for 0 to 300 s, 10% SDS-PAGE, hexamer and monomer bands quantified; hexamer to monomers
SEC = target: the molecule itself; test: SEC
[2] = target: the molecule itself; test: SDS-PAGE stability assay; 1 ug protein in loading buffer with 1% SDS heated at 95 °C for 0 to 300 s, 10% SDS-PAGE, hexamer and monomer bands quantified; hexamer to monomers

| Molecule | half-life of hexamer in 1% SDS at 95 °C [1] | stoichiometry N (SEC) | half-life of hexamer in 1% SDS at 95 °C [2] |
| --- | --- | --- | --- |
| VcNTDEcCTR (from UniProt Q9KV11 1-72; P0A6X3 73-102) | 39.2 s |  |  |
| B1 |  | 6 | 33.2 ± 1.3 s |
| B2 |  |  | 32.1 ± 1.9 s |
